B1: A1C3 (VHH)
VHH: QVQLQESGGGLVQPGGSLRLSCAASGRIFSIKSMGWYRQAPGKQRELVADITSGGSTNYADSVKGRFTISRDSAWNTVYLQMNSLKPEDTAVYYCRRVVVTPYPDEYEYDYWGQGTQVTVSS
notes: also called Nb A1C3
B2: A1F4 (VHH)
VHH: QVQLQESGGGLVQAGGSLRLSCTASGRTFTTYNWAWFCQAPGKEREFVAAITGLTRHTYYADSVKGRFTISRDNAKNTVYLQMNSLKPEDTAVYFCAVSSGGDLNERVNYEYWGQGTQVTVSS
B3: A1A6 (VHH)
VHH: QVQLQESGGGSVQAGGSLRLSCAASGFIDDDYAIGWFRQAPGKEREGISCISSSNGKIHYADSVKGRFTISEDIAKKTVYLQMNFLKPEDTAVYYCAAETRGWSYCSGYGWSRYKYWGQGTQVTVSS
notes: also called Nb A1A6; A1A6-Avi
B4: A2G6 (VHH)
VHH: QVQLQESGGGLVQAGGSLRLSCAASGRTFSRIAMGWFRQVPGKEREFVAGISGNGGTFYTDSVKGRFTISRDNTKNTVYLQMNSLRPEDTAVYYCAADPNYRATYFPYGMDYYGRGTQVTVSS
B5: B1A11 (VHH)
VHH: QVQLQESGGGVVQPGGSLRLTCTSSRSINIYVAMGWYRQAPGKQRERVATAHKDGGTRYSDSVKGRFTISRDDDKNTVYLQMNNLEPGDTAVYYCNAFGSSAWGQGTQVTVSS
B6: B2F11 (VHH)
VHH: QVQLQESGGGLVQAGGSLTLSCTASGFTFSNYVMSWYRQAPGKEREWVASVSESGQSRTYADSVKGRFTISRDNTNFSVYLQMNNLNSEDTAVYYCNTGSRTYGARYWGQGTQVTVSS

Tests used:
TcdA1-1832 = target: T1, TcdA1-1832 (Clostridioides difficile strain VPI10463, UniProt P16154 1-1832); assay: negative stain EM with single particle averaging
T1 construct: range 1-1832; also called TcdA1-1832 (no CROPs domain)

TcdA-GTD (TcdA1-542) = target: T2, TcdA-GTD (TcdA1-542) (Clostridioides difficile strain VPI10463, UniProt P16154 1-542); assay: ELISA-like screen of clone lysates on isolated domains
T2 construct: range 1-542; also called TcdA glucosyltransferase domain
T2 sequence (P16154 1-542 limits assumed): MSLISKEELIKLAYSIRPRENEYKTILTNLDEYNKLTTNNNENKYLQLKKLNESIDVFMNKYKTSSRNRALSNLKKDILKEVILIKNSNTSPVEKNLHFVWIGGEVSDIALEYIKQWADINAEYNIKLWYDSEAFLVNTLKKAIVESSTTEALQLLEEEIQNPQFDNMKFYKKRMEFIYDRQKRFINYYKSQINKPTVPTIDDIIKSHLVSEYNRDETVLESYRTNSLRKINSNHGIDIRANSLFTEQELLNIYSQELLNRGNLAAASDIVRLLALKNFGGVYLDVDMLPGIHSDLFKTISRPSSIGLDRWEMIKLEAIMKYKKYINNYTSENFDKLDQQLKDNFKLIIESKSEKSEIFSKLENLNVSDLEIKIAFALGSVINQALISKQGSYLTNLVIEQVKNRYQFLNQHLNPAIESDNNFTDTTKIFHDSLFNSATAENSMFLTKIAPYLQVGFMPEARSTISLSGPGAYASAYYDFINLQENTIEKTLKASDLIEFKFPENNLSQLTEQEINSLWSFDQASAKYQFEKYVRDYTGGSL

TcdA1-1809 = target: T3, TcdA1-1809 (Clostridioides difficile strain VPI10463, UniProt P16154 1-1809); assay: ELISA on isolated toxin domains (domain specificity)
T3 construct: range 1-1809

[1] = target: T4, full-length TcdA (TcdA1-2710) (Clostridioides difficile strain VPI10463, UniProt P16154 1-2710); assay: sandwich ELISA on filtered culture supernatant (VPI10463), FIG. 3J
T4 construct: range 1-2710; also called rTcdA; purified, recombinant TcdA
T4 sequence (P16154 whole entry): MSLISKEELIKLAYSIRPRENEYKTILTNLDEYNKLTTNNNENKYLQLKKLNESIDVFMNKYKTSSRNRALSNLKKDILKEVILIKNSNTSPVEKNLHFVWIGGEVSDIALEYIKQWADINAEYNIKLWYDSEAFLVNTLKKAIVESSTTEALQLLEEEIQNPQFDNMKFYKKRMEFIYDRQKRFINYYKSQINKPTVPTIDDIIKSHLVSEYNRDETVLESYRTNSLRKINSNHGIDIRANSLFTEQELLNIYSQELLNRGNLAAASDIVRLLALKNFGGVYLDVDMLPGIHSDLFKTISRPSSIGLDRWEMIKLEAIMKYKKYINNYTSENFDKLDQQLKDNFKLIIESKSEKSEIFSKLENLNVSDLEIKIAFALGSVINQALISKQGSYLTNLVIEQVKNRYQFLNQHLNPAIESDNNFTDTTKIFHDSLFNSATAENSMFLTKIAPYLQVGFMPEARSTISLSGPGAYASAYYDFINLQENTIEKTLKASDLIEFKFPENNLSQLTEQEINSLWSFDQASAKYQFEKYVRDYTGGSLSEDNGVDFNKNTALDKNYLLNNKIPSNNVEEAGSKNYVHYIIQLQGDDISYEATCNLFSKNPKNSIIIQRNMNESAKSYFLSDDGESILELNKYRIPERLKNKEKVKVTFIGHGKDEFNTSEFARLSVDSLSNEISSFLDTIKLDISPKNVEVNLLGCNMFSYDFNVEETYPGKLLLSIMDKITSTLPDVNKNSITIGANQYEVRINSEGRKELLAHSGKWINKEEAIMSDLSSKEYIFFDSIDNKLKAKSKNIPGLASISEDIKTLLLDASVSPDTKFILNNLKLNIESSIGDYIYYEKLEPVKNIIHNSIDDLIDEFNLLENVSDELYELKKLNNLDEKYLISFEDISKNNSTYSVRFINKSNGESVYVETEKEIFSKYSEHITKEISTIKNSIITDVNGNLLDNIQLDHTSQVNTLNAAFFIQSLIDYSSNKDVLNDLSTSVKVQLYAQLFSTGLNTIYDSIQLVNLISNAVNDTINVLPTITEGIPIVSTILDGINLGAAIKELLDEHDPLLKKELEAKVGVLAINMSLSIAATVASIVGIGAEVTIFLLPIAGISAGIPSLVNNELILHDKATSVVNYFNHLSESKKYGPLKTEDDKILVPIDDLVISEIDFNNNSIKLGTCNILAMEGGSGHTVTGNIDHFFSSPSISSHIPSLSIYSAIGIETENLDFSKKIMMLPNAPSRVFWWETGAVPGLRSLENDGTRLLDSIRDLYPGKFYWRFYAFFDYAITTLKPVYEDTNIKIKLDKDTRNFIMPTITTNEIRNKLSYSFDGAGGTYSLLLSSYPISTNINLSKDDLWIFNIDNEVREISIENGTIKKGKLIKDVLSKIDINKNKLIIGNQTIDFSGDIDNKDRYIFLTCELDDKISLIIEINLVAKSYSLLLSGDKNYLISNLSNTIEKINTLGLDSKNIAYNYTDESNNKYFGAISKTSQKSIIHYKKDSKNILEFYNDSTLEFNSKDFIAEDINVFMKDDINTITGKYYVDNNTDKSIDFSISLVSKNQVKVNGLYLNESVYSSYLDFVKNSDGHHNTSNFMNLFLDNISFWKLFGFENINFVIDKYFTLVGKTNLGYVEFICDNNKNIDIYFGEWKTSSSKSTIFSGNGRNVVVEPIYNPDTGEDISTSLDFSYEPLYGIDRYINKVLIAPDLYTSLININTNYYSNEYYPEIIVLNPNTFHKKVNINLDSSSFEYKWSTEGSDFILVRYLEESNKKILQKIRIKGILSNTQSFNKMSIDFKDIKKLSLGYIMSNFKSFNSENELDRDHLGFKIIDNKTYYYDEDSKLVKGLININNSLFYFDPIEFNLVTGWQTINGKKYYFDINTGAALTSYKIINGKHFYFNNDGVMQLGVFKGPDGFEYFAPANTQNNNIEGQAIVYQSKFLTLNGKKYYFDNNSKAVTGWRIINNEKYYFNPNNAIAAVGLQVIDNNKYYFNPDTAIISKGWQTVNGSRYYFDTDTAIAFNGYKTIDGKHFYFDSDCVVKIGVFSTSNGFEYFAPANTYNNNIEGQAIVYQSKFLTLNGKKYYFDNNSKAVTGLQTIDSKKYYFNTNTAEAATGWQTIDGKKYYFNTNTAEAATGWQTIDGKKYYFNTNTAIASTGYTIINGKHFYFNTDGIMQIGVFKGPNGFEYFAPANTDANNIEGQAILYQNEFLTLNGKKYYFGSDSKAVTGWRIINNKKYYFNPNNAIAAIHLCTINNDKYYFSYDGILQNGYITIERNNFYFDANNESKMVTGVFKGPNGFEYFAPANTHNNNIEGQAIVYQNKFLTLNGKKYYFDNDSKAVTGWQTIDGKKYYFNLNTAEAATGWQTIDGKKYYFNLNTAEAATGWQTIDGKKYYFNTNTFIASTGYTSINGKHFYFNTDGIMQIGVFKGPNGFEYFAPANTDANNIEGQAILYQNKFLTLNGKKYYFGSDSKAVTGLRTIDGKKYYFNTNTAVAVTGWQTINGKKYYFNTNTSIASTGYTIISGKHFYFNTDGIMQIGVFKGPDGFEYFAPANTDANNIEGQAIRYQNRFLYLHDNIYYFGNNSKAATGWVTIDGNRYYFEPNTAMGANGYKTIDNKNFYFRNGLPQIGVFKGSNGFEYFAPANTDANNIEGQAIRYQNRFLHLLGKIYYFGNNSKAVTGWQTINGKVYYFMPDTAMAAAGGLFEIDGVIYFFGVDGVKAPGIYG

[2] = target: T4, full-length TcdA (TcdA1-2710); assay: cell-based or functional assay
[3] = target: T4, full-length TcdA (TcdA1-2710); assay: sandwich ELISA, capture A2B10, biotinylated detection A1A6
[4] = target: full-length TcdB (TcdB1-2366), VPI10463 (Clostridioides difficile strain VPI10463, UniProt P18177 1-2366); assay: cell-based or functional assay
[5] = target: T5, TcdB-CROPs (TcdB1827-2366) (Clostridioides difficile strain VPI10463, UniProt P18177 1827-2366); assay: ELISA on isolated toxin domains (domain specificity)
T5 construct: range 1827-2366; also called TcdB CROPS domain; TcdBX-Y
T5 sequence (P18177 1827-2366 limits assumed): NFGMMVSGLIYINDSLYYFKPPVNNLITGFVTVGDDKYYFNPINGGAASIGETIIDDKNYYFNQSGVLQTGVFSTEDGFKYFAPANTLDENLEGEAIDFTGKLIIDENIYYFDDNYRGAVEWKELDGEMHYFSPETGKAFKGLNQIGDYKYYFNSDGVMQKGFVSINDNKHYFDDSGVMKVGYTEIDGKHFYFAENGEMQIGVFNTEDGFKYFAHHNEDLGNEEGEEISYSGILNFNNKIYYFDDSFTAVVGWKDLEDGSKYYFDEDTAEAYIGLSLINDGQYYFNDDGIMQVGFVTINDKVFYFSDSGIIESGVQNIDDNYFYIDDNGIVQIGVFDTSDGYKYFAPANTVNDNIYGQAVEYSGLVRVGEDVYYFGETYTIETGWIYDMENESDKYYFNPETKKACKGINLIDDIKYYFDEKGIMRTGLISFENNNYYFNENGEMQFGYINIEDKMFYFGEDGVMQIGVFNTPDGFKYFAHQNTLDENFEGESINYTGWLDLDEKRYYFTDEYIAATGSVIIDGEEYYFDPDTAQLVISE

| Binder | binding result (TcdA-GTD (TcdA1-542)) | EC50 (nM), TcdB neutralization, Vero cells [4] | binding result [5] | other results |
| --- | --- | --- | --- | --- |
| B1 | no binding |  |  | binding result (TcdA1-1832): binds; binding result (TcdA1-1809): binds; binding result [1]: binds |
| B2 | no binding |  |  | EC50, TcdA neutralization, T84 cells [2]: > 10000 nM |
| B3 |  |  |  | binding result [3]: binds |
| B4 | no binding |  |  | EC50 (nM), TcdA neutralization, T84 cells [2]: 9.2 nM; EC50 (nM), TcdA neutralization, Vero cells [2]: < 1 nM |
| B5 |  | 38.4 nM | binds |  |
| B6 |  | 15.6 nM | binds |  |

Source: US20250179155A1 (VANDERBILT UNIVERSITY, published 2025)
